Measurements as given in a protein production outcome set (Wang et al. 2014).

assay: label from the status in PepcDB records

Sequence	protein production
ELTIPKGAVSEIVTLSETFNQMAALLAEREQAILDSRGNRFARLIDGMSDKSFYCSLDPDGQLAQVSEGVTKVLGIPPELLKRKYQRLFSANPLNEKNWEYTDLALKGQNVPPHQIELVDAKGQARRLDVFMQPLVSDT	failed
EMFYFEPVNIKKYLGSIGSELSDEVITIEQFFNLNSEYITIIDARSPREFSEKTISNAVNIPLFLTEEYETIGKLYKHEGKEVAIAKAGIIIQDGIKRIVSESLKLDPNKNLVVFCARGGMRSQSIATILKLLGFKVKRLVGGFKSYNISKT	failed
EMTDLQSTHKNFLFEIEEVGIKNLTYPVLIDQYQTAGLFSFSTSLNKNEKGINMSRILESVEKHYDNGIELEFNTLHQLLRTLQDKMNQNAAGVDVSGKWFFDRYSPVTNIKAVGHADVTYGLAIENHTVTRKELTIQAKVTTLCPCSKEISEYSAHNQRGIVTVKAYLDKNNDVIDDYKDKILDAMEANASSILYPILKRPDEKRVTERAYENPRFVEDLIRLIAADLVEFDWIEGFDIECRNEESIHQHDAFARLKYRK	not failed
EPTFVVAQIKEIIDHPDSDHLHICQAEINDGKTVQIVCGAPNASVGLKTVAALPGAMMPNGSLIFPGKLRGEDSFGMLCSARELALPNAPQVRGIIELSDQVIVGESFDANK	failed
EPVQLTVPQMLAQLQGTDTSLRYYAAWWLGKFGLETATAAERQAIVSALIAALADEADRTELGGYPLRRNAARALGKLGDRQAVPALIECLRCEDFYVREAAAIALGQLGDPRAIAPLQSLLEGGVAMARLVPGRPHLVQPVEAVIESLGHLGATEAIALIEPFLAHEMPRVQFAAARALFQLTGDAVYGDRLLAALNSEDVQLRRTALLDLGAMGYLPAAEAILQAGVEASFKLIALHGILGQQLRQAAPAEQTLSLFQGLDQLL	failed
EQDIVANGGEVLGSETVGDVSLFFLNPVGHIHHWVTDAWGGSAELKFNSSPWFGNQDVAKFAMDAGASYDSQFYGVELKVTF	failed
EQQGKFDWMLRDLYDGVPGIEMIVVLSADGLRIARYSGDPDAADRVAAACAGLQSLASAVSQEIPTSDGDMKMVLIEMNGGYFYLMAAGPNAYLAVLSDVRCEPGRMGLSMADLVARIGPHLTSPARR	failed
EQYGDLPPRVFECRLAMVQPSSVVSGNNRWSTAANDMLKTVAQCGLIDIEVYSLFNNVAAVLIHMRDGIINDKLVELMLCRRSDEDYMSRKDHDFRLRRQ	failed
ERIRYESQIKRFNRIMDTTMENIPAGIVVKDIENDFRYIYRNRESYNRDISSENAIGMNDFDYYPPEMAQQKRKEDMEIAATGKGMHWIMEGKDKNGNLLILDKQKIMVESEDFSPIIVSIEWDIT	failed
ERKRREKRLEETSSRLEALFENSPDMIDVLDADGTICEVNQRFCAELGYDESEVLGRSIWEFDLMFDAEDVQTQLSGFSVDERRKFEGLYERRDGSTMSVEVHLLRFNLEGEDRFLAISRDIT	not failed
ERNKTLYWGGALWSPPSNWNPFTPWNAVAGTIGLVYEPLFLYDPLNDKFEPWLAEKGEWVSNNEYVLTLRKGLRWQDGVPLTADDVVFTFEIAKKYTGISYSPVWNWLGRIERVDERTLKFVFSDPRYQEWKQMLINTPIVPKHIWENKTEEEVLQAANENPVGSGPYYVESWADDRCVFKKNGNWWGIRELGYDPKPERIVELRVLSNNVAVGMLMKGELDWSNFFLPGVPVLKKAYGIVTWYENAPYMLPANTAGIYINVNKYPLSIPEFRRAMAYAINPEKIVTRAYENMVTAANPAGILPLPGYMKYYPKEVVDKYGFKYDPEMAKKILDELGFKDVNKDGFREDPNGKPFKLTIECPYGWTDWMVSIQSIAEDLVKVGINVEPKYPDYSKYADDLYGGKFDLILNNFTTGVSATIWSYFNGVFYPDAVESEYSYSGNFGKYANPEVETLLDELNRSNDDAKIKEVVAKLSEILLKDLPFIPLWYNGAWFQASEAVWTNWPTEKNPYAVPIGWNGWWQLTGIKTLFGIEAK	not failed
ESEPYVRLTTLRQLHQVMADMNTARSLADTLQTVADGVVNGLGYELACVNLVRPDGDLVVAAFAGNSAAEALITGRVGSRVSWDRRLDMGEAWGDLRFIPHTEGWVLDEDDVPQWYTDGPEPRFEDEWHPSDRLFAPMYTPGVQGASCGELIGVLSVDRPRNGRKPGAWGREALQMYAFQAAIAISNARLRANMQRALVRLEREQQALRASEESFRQAFEYAPS	failed
ETSDQRKAEEHIEKEAKYLASLLDAGNLNNQANEKIIKDAGGALDVSASVIDTDGKVLYGSNGRSADSQKVQALVSGHEGILSTTDNKLYYGLSLRSEGEKTGYVLLSASEKSDGLKGE	not failed
FANTATVAVSQIVEHPALDATRQGLLDGLKAKGYEEGKNLEFDYKTAQGNPAIAVQIARQYVGESPDVLVGIATPSAQALVSATRTIPVVFTAVTDPVGAKLVKSMKQPGKNVTGLSDLSPVAQHVELIQEILPQVKSIGVVFNPGEANAVTLVNLLKESAEAKGIKVVEATALKSADVQSATQAIAAKSDILYAPTDNTVASAIEGMIVAANQAKKPVFGGATSYVEKGAIAGLGFDYYQVGVQTADYVAAILDGQEPGKLDVKVATGSDLVINESAASKLGIQLPSSVVQRATSMQ	failed
FDENWGADEELLLIDACETLGLGNWADIADYVGNARTKEECRDHYLKTYIE	not failed
FEKVYHLKLSIKGITPQIWRRIQVPENYTFLDLHKAIQAVMDWEDYHLHEFEMVNPKTGMLDKIGAEGDDFDAFGGPLVSEKKAKLSDYFTLENKEALYTYDFGDNWQVKVRLEKILPRKEGVEYPICTAGKRAAVPEDSGGVWGYEEMLEVLKDSEHEEYEDTVLWLGDDFDPEYFDPKDVS	failed
FGKVTSSQQVAQRLLQEMKGLQQEHLICIYLNTKNDIIQQKTIFKGSLNQSIAHPREIFREAVKYSSARILLAHNHPSGNPTPSPQDIQFTKRMEECGEMMGIQLLDHIILGDSGYISLREENFFASE	failed

Sequence	protein production
FIFFNQPKTPEESIQLLGAQAGDTESFRVTLDRIPPQIQKLSFTATLDGAGQMSQVAPGYLRIVAGGEEVARYSFTGSEFSTERAVMLGDFYLKDVWRFAAVGQGFDGGLDALL	failed
FNGWSWSLGGNIGFNKSKIGDLGFAPTDFGTLKNVRGYQGTSIGDHFGIANLFIAGEAPGLFFGYKTQGIIQPEDIVDGKVAYTAADGSTKYYSSSVANDLGAGNIKAVDMNEDGVVDEKDKTILGNPNPDFTYGFQTRIAWKDLSVSASFNGVHGNQILNTNIRYYTPSRQAGNLTQEAFRNIWTEENHSNLYPSATANVKNVVYDRYIEDGSYLRCSDITLNYTLPKSWMKKIGFQNIGVFASVKNAFVITNYSGYDPEINSFAFDGLRPGIDMNAFPSQRSYVFGLNVAF	failed
FQDFEYPDYDDYRAEAFLHQQKRMECYSKAKEAYRIGKKNVATFYAQQGTLHEQKMKEANHLAAIEIFEKVNASLLPQNVLDLHGLHVDEALEHLMRVLEKKTEEFKQNGGKPYLSVITGRGNHSQGGVARIKPAVIKYLISHSFRFSEIKPGCLKVMLK	failed
FVWHEYENAAEAAQSLADAVADALQGALDEKGGAVLAVSGGRSPIAFFNALSQKDLDWKNVGITLADERIVPTVHADSNTGLVREYLLKNKAEAAMWIPMVEDGKTETELHPDAVVDYALKHYKQPDVLVLGMGNDGHTASIFPKAPQFQTAIDGSAGVALVHTTPVTAPHERVSMTLDAIAHTGHVFLAIRGEEKKAVFDQAAQGENREYPINLVLNHQGVNCHV	failed
FYTNRTVVKLMTMIMAPQPGESVYDPTCGSGGLLLNCALHLKDEGKEYRTLKLYGQEINLLTSAIARMNMFMHGIEEFDIVRGNTLSNPGLLENDELKKFNVILANPPYSIKSWDRKAFESDPYGRNVWGTPPQGCADYAFQQHIQKSLDLGNGRSISLWPHGILFRDAETAMRRKMIEQDQVECVIGLGPNLFYNSPMEACLLITKTNKIESKKDKILFINAVKEVRQDKNIGYLDQVHIDKIFNAYNKFENED	failed
GAPLKAVSAFAPPMKTQDFNLYTNEVHAKFDDYDLGMEYARQHNKPVMLDFTGYGCVNCRKMELAVWTDPKVSSIINNDYVLITLYVDNKTPLTEPVKIMENGTERTLRTVGDKWSYLQRVKFGANAQPFYVLIDNEGNPLNKSYAYDEDISKYINFLQTGLENYRKEK	not failed
GDDEIAMLGRYFNQMTRQLKGQRDTLLENTHQIERRRRLFDSVLSSVTSGVVGLDSQGKVTFVNRSAERLLDWSGDEQSLDLAVAVPEFVSLFESLVAAGQETVQAEIKVTRKGQLENLLVRMSTRRGEDDTLEGYVIAFDD	failed
GDGVWDWDISNGSIFFSSRCRQLLGLTAPEAIAGFQLWQTGIHPDERPTVQAELAGYLRQPEGSFVTEHRFRKGEEWIWLLGRGMVVSLDIQGRPLRMIGTYSDITERKEAEAELQLLNSHLEERVAARTAELKKAMQQISIAEKQAALARMVAGMAHELNTPIGNILLCSSQIQADVAAIAKADTDRLLSRKGLQSFLQKAAESCELLQRNSELAGDLIGRFKQIAVDQLDQP	failed
GDLAGSLDLGTGRIALYSIDVSGHGVASALMTARLAGLLSGLSTDGGVARSDGACRQCAGHDSWPPEILAARLNRMMIADLGVEQYFTMAYAEIDLRSGALALVQAGHPHPVVLRAGGRVELLGQGGLPVGLLPDATFERSETRLLPGDRLFLLSDGVTECPDLSGHELGEAGLVRLLAEHAGLGSEELMEALVWALHERMGGGDFRDDVSGVLFDY	failed
GEELLPDGVPEEVMESAQPVANEEIVAQLVSMGFSQLHCQKAAINTSNAGVEEAMNWLLSHMDDPDIDAPI	not failed
GEGTDAIQALIQAYFTAWNTNAPERFAEIFWPDGSWVNVVGMHWRGRDQIVFAHTAFLKTIFKDCKQELVTIEARTIAPGSALAVVTLIQDAYVTPDGRQMPRAHDRLTLLAVEREGVWRFIHGHNTIVNPDAANNDPVLRMKPA	not failed
GFAATALPVLQRVTDRTHEATILSVRDGNHHLTVNKVDGPKTFRVTSDPGHLGALHTTSVGKALVAFEEEVERKRLLEELPLDPLTEHSITDRDKFRAEIDQVRRQGYAVMDEENEIGMRAVAVPVLNSQGHAFASLAVAVPVFRLTMEELIAHVPTLQEAAAELAARLPQ	failed
GGLRLIPLDQVRYLQADEKYVVICHEQGEDLIEESLKSLEKEFSDRFVRIHRNCLIARAELTELRRCSDGQVQAVLRNVVTPLAVSRRCVPLLCDQLR	not failed
GGTPSPQLTSRQEIAVVPKVFDASTMFLEAQMASIQILEQENKKIGYVHIWSNAADPYQQELQNELIYGRLRNADGLILDLRDGWGGGDISYLNIFTAKQSPSVTHVQRNGRRYTYNYQWKKPVVMLVNEGSRSSKEILAFNFQQNQIGPVLGTKTTGAVVAGRPYIMQDGSLLYVAVADVFLNGNQRLEGKGVTPDINVPFSLEYAQGVDPQKQTAIETLLKAL	failed
GHMARTVNLKGNPVTLVGPELKVGDRAPEAVVVTKDLQEKIVGGAKDVVQVIITVPSLDTPVCETETKKFNEIMAGMEGVDVTVVSMDLPFAQKRFCESFNIQNVTVASDFRYRDMEKYGVLIGEGALKGILARAVFIIDKEGKVAYVQLVPEITEEPNYDEVVNKVKELI	not failed
GHMSEFVSIAARQEGAVGIIELARPDVLNALSRQMVAEIVAAVEAFDRNEKVRVIVLTGRGRAFAAGADIQEMAKDDPIRLEWLNQFADWDRLSIVKTPMIAAVNGLALGGGFELALSCDLIVASSAAEFGFPEVNLGVMPGAGGTQRLTKLIGPKRALEWLWTGARMSAKEAEQLGIVNRVVSPELLMEETMRLAGRLAEQPPLALRLIKEAVQKAVDYPLYEGMQFERKNFYLLFASEDQKEGMAAFLEKRKPRFQGK	not failed
